The target of assay [1] is T1, His-tagged mArfN37 (N-terminal 37 amino acids of mouse p19Arf with poly-His tag) (mouse).
T1 construct: Captured on the SPR chip by a covalently linked anti-His antibody; Tag placed first here; also called His-mArfN37; His-tagged mArf37
T1 chain: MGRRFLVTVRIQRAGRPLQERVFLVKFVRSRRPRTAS
Briefly: SPR, His-tagged mArfN37 captured by anti-His antibody, peptide injected, signal minus reference cell [c]. As for the experimental part:
(§1) Binding studies were performed using a Biacore 3000 surface plasmon resonance (SPR) instrument (Biacore, Inc.). A Tetra-His™ Antibody (Qiagen, Inc.; Cat. #34670) was covalently attached to a carboxymethylated gold surface (C-1 chip; Biacore, Inc.). The carboxymethyl groups on the surface were activated with N-ethyl-N′-(3-dimethylaminopropyl) carbodiimide (EDC) and N-hydroxysuccinimide (NHS) and the antibody was attached at pH 7.4 in 20 mM sodium phosphate buffer, 150 mM NaCl (PBS). Reactive sites remaining on the surface were blocked by reaction with ethanolamine. The His-tagged ligand was attached to the antibody by injecting a 5-10 μg/ml solution of the ligand in 10 mM HEPES, 150 mM NaCl, pH 7.4 (HBS-N buffer, Biacore) at a flow rate of 10 μL/min through the flow cell. A reference cell was prepared similarly except that no His-tagged ligand was added. Binding was measured by flowing the non-His-tagged analyte through the reference and ligand-containing flow cells in sequence. Prior to injection of ligands, the chip surfaces were equilibrated in HBS-N buffer. Changes in the SPR response due to solvent differences and the injection process were monitored by injection of HBS-N buffer alone. Regeneration of the chip surface to remove bound analyte and ligand was accomplished by two 100 μL injections of 10 mM glycine, pH 2.0 through both flow cells. Data reported is the difference in SPR signal between the flow cell containing analyte and the reference cell. Duplicate injections were made and the SPR response values reported are the average of these two injections.
A similar approach using short synthetic peptides and SPR was used to map the segments of Hdm2 that bind mArfN37 (FIG. 5c). […] The first of these as Arf-binding segment is termed “H1” and the second is termed segment “H2”.

In assay [2] the target is T2, His-tagged Hdm2 210-304 (human, UniProt Q00987 210-304).
T2 construct: Captured on the C-1 chip by anti-His antibody for the Arf peptide library SPR; Tag placed first here
T2 sequence (Q00987 210-304): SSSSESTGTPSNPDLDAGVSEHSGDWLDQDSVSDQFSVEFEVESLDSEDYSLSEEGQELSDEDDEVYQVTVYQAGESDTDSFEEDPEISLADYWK
The experiment in a line: SPR, His-tagged Hdm2 210-304 captured by anti-His antibody, peptide injected 10 min, signal minus reference cell [a]. As to the method:
as §1, with “Reactive” for “Binding studies were performed using a Biacore 3000 surface plasmon resonance (SPR) instrument (Biacore, Inc.). A Tetra-His™ Antibody (Qiagen, Inc.; Cat. #34670) was covalently attached to a carboxymethylated gold surface (C-1 chip; Biacore, Inc.). The carboxymethyl groups on the surface were activated with N-ethyl-N′-(3-dimethylaminopropyl) carbodiimide (EDC) and N-hydroxysuccinimide (NHS) and the antibody was attached at pH 7.4 in 20 mM sodium phosphate buffer, 150 mM NaCl (PBS). Reactive”
(§2) Two libraries of peptides 15 amino acids in length were synthesized based on the sequence of exon 1β of mouse p19^Arf and the entire sequence of human p14^Arf. The sequence for the first peptide in each library corresponded to the first 15 amino acids of the protein sequences. […] This approach yielded two libraries of overlapping peptides spanning mouse p19^Arf residues 1-64 and human p14^Arf residues 1-132. The ability of these peptides to bind Hdm2 fragments was determined using the surface plasmon resonance (SPR) technique with a Biacore 3000 instrument. […] Library peptides were allowed to flow over the Hdm2 surface, or over a control surface lacking an Hdm2 fragment.
(In general: In SPR one partner is held on a chip, and binding of the other changes the refractive index at the surface.)

Assay [3] addresses Hdm2 210-275 (residues 210-275 of SEQ ID NO:8, His tag cleaved) (human, UniProt Q00987 210-275). Briefly: CD-based binding assay.
The target in assay [4] is T3, Hdm2 210-304 (residues 210-304 of SEQ ID NO:8, His tag cleaved) (human, UniProt Q00987 210-304).
T3 construct: Non-His-tagged analyte in SPR; also used in CD, NMR, gel filtration
T3 sequence (Q00987 210-304): as above
Briefly: CD-based binding assay.

The target in assay [5] is T4, Hdm2 peptide, residues 275-289 of SEQ ID NO:8 (H2 segment) (human).
T4 construct: also called H2 peptide; one from the H2 segment
T4 peptide: Ac-VYQVTVYQAGESDTD-NH2
Briefly: CD titration, failure to induce structure.

In assay [6] the target is T2, His-tagged Hdm2 210-304. The experiment in a line: SPR, His-tagged Hdm2 210-304 captured by anti-His antibody, peptide injected 10 min, signal minus reference cell [b]. As for the experimental part:
as §1, with “Reactive” for “Binding studies were performed using a Biacore 3000 surface plasmon resonance (SPR) instrument (Biacore, Inc.). A Tetra-His™ Antibody (Qiagen, Inc.; Cat. #34670) was covalently attached to a carboxymethylated gold surface (C-1 chip; Biacore, Inc.). The carboxymethyl groups on the surface were activated with N-ethyl-N′-(3-dimethylaminopropyl) carbodiimide (EDC) and N-hydroxysuccinimide (NHS) and the antibody was attached at pH 7.4 in 20 mM sodium phosphate buffer, 150 mM NaCl (PBS). Reactive”
as §2

This note sets out measurements from US20020045192A1 (ST JUDE CHILDREN S RESEARCH HOSPITAL, published 2002).

Sequence of Hdm2 210-275 (residues 210-275 of SEQ ID NO:8, His tag cleaved) (Q00987 210-275): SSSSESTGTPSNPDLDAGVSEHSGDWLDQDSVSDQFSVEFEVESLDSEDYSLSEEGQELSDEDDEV

B1: 320-334 (Hdm2 peptide) (peptide)
peptide: Ac-NRCWALRENWLPEDK-NH2
notes: also called Hdm2 library peptide, residues 320-334
With B1, the binding result in assay [1] is given as “no binding”.

B2: 295-309 (Hdm2 peptide) (peptide)
peptide: Ac-PEISLADYWKCTSCN-NH2
modifications: cysteine pairing not given here
notes: also called Hdm2 library peptide, residues 295-309
Consider B2, for which the binding result in assay [1] is “no binding”.

B3: 21-35 (mouse Arf peptide) (peptide)
peptide: Ac-RVFLVKFVRSRRPRT-NH2
notes: also called mouse p19Arf library peptide, residues 21-35
On to B3, for which, in the assay with His-tagged Hdm2 210-304 [2], the binding result was “binds”.

B4: 255-269 (Hdm2 peptide) (peptide)
peptide: Ac-DSEDYSLSEEGQELS-NH2
As for B4, the binding result in assay [1] is given as “no binding”.

B5: 335-349 (Hdm2 peptide) (peptide)
peptide: Ac-GKDKGEISEKAKLEN-NH2
notes: also called Hdm2 library peptide, residues 335-349
Turning to B5, the binding result in assay [1] is listed as “no binding”.

B6: 1-15 (mouse Arf peptide) (peptide)
peptide: Ac-MGRRFLVTVRIQRAG-NH2
notes: also called mouse p19Arf library peptide, residues 1-15
Turning to B6, in the assay with His-tagged Hdm2 210-304 [2], the binding result was “binds”.

B7: 11-25 (mouse Arf peptide) (peptide)
peptide: Ac-IQRAGRPLQERVFLV-NH2
notes: also called mouse p19Arf library peptide, residues 11-25
As to B7, the binding result with His-tagged Hdm2 210-304 [2] is given as “no binding”.

B8: 250-264 (Hdm2 peptide) (peptide)
peptide: Ac-EVESLDSEDYSLSEE-NH2
As for B8, the binding result in assay [1] is “binds”.

B9: 41-55 (mouse Arf peptide) (peptide)
peptide: Ac-AFVNMLLRLERILRR-NH2
notes: also called mouse p19Arf library peptide, residues 41-55
Turning to B9, the binding result in the assay with His-tagged Hdm2 210-304 [2] is on record as “no binding”.

B10: 285-299 (Hdm2 peptide) (peptide)
peptide: Ac-ESDTDSFEEDPEISL-NH2
notes: also called Hdm2 library peptide, residues 285-299
With B10, the binding result in assay [1] is recorded as “no binding”.

B11: 315-329 (Hdm2 peptide) (peptide)
peptide: Ac-LPSHCNRCWALRENW-NH2
modifications: cysteine pairing not given here
Turning to B11, the binding result in assay [1] was “no binding”.

B12: 265-279 (Hdm2 peptide) (peptide)
peptide: Ac-GQELSDEDDEVYQVT-NH2
notes: also called Hdm2 library peptide, residues 265-279
B12: in assay [1], the binding result is recorded as “no binding”.

B13: 260-274 (Hdm2 peptide) (peptide)
peptide: Ac-SLSEEGQELSDEDDE-NH2
notes: also called Hdm2 library peptide, residues 260-274
As for B13, in assay [1], the binding result was “no binding”.

B14: Hdm2 peptide, residues 290-304 of SEQ ID NO:8 (peptide)
peptide: Ac-SFEEDPEISLADYWK-NH2
B14: in assay [1], the binding result was “binds”.

B15: mouse p19Arf library peptide, residues 31-45 (contains the NoLS RRPR) (peptide)
peptide: Ac-RRPRTASCALAFVNM-NH2
On to B15, for which the binding result in the assay with His-tagged Hdm2 210-304 [2] is “binds”.

B16: 280-294 (Hdm2 peptide) (peptide)
peptide: Ac-VYQAGESDTDSFEED-NH2
notes: also called Hdm2 library peptide, residues 280-294
Regarding B16, in assay [1], the binding result is reported as “no binding”.

B17: 300-314 (Hdm2 peptide) (peptide)
peptide: Ac-ADYWKCTSCNEMNPP-NH2
modifications: cysteine pairing not given here
notes: also called Hdm2 library peptide, residues 300-314
On to B17, for which the binding result in assay [1] is listed as “no binding”.

B18: mouse Arf motif peptide A1 (1-14) (peptide)
peptide: Ac-MGRRFLVTVRIQRA-NH2
notes: the peptide tested spans 1-14; also called mouse A1
Take B18: the binding result in assay [3] was “binds”; in assay [4], “binds”; in assay [5] it was “no binding (tested: 1-10 µM (concentrations used))”.

B19: 215-229 (Hdm2 peptide) (peptide)
peptide: Ac-STGTPSNPDLDAGVS-NH2
notes: also called Hdm2 library peptide, residues 215-229
In the case of B19, in assay [1], the binding result was “no binding”.

B20: 210-224 (Hdm2 peptide) (peptide)
peptide: Ac-SSSSESTGTPSNPDL-NH2
notes: also called Hdm2 library peptide, residues 210-224
B20: the binding result in assay [1] was “no binding”.

B21: human p14Arf peptide, residues 16-30 (contains the human A2 motif) (peptide)
peptide: Ac-GPPRVRVFVVHIPRL-NH2
notes: the peptide tested is the 15-mer 16-30; also called fourth peptide of the human library; human A2 (16-30)
As for B21, the binding result in the assay with His-tagged Hdm2 210-304 [6] is recorded as “binds”; in assay [3], “no binding”; in assay [4] it was “binds”; in assay [5], “no binding (tested: 1-10 µM (concentrations used))”.

B22: 26-40 (mouse Arf peptide) (peptide)
peptide: Ac-KFVRSRRPRTASCAL-NH2
notes: also called mouse p19Arf library peptide, residues 26-40
With B22, the binding result with His-tagged Hdm2 210-304 [2] was “binds”.

B23: 235-249 (Hdm2 peptide) (peptide)
peptide: Ac-WLDQDSVSDQFSVEF-NH2
notes: member of the group m17; also called H1 segment peptide
Regarding B23, in assay [1], the binding result is “binds”.

B24: 310-324 (Hdm2 peptide) (peptide)
peptide: Ac-EMNPPLPSHCNRCWA-NH2
modifications: cysteine pairing not given here
notes: also called Hdm2 library peptide, residues 310-324
With B24, the binding result in assay [1] is listed as “no binding”.

B25: mouse Arf motif peptide A2 (16-30) (peptide)
peptide: Ac-RPLQERVFLVKFVRS-NH2
notes: Same limits as the fourth peptide of the mouse library, so possibly a member of group m12; also called mouse A2
For B25, the binding result in the assay with His-tagged Hdm2 210-304 [2] is “binds”; in assay [3] it was “no binding”; in assay [4] it was “binds”; in assay [5] it was “no binding (tested: 1-10 µM (concentrations used))”.

B26: 6-20 (mouse Arf peptide) (peptide)
peptide: Ac-LVTVRIQRAGRPLQE-NH2
notes: also called mouse p19Arf library peptide, residues 6-20
Consider B26, for which the binding result in the assay with His-tagged Hdm2 210-304 [2] is “binds”.

B27: 240-254 (Hdm2 peptide) (peptide)
peptide: Ac-SVSDQFSVEFEVESL-NH2
notes: member of the group m17; also called Hdm2 library peptide, residues 240-254; H1 segment peptide
With B27, in assay [1], the binding result is given as “binds”.

B28: 220-234 (Hdm2 peptide) (peptide)
peptide: Ac-SNPDLDAGVSEHSGD-NH2
notes: also called Hdm2 library peptide, residues 220-234
In the case of B28, in assay [1], the binding result is “no binding”.

B29: 330-344 (Hdm2 peptide) (peptide)
peptide: Ac-LPEDKGKDKGEISEK-NH2
notes: also called Hdm2 library peptide, residues 330-344
For B29, the binding result in assay [1] is “no binding”.

B30: 230-244 (Hdm2 peptide) (peptide)
peptide: Ac-EHSGDWLDQDSVSDQ-NH2
notes: also called Hdm2 library peptide, residues 230-244
As for B30, in assay [1], the binding result was “no binding”.

B31: 245-259 (Hdm2 peptide) (peptide)
peptide: Ac-FSVEFEVESLDSEDY-NH2
notes: as for B23
On to B31, for which the binding result in assay [1] was “binds”.

B32: human Arf motif peptide A1 (1-14) (peptide)
peptide: Ac-MVRRFLVTLRIRRA-NH2
notes: the peptide tested spans 1-14; also called human A1
Consider B32, for which the binding result in assay [3] is recorded as “binds”; in assay [4] it was “binds”; in assay [5] it was “no binding (tested: 1-10 µM (concentrations used))”.

B33: 270-284 (Hdm2 peptide) (peptide)
peptide: Ac-DEDDEVYQVTVYQAG-NH2
notes: also called Hdm2 library peptide, residues 270-284
As for B33, the binding result in assay [1] is “binds”.

B34: 325-339 (Hdm2 peptide) (peptide)
peptide: Ac-LRENWLPEDKGKDKG-NH2
notes: also called Hdm2 library peptide, residues 325-339
Regarding B34, in assay [1], the binding result was “no binding”.
